Earlier results in article PMC3792554.

Biological target: IL-18 (Homo sapiens) (UniProt Q14116)
Sequence (Q14116 37-193): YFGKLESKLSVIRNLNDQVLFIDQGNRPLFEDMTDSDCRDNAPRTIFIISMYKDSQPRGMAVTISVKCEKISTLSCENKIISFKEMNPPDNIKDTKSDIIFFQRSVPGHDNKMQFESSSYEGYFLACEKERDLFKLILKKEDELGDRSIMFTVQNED

Sequence of IL-18BP (O95998 31-194): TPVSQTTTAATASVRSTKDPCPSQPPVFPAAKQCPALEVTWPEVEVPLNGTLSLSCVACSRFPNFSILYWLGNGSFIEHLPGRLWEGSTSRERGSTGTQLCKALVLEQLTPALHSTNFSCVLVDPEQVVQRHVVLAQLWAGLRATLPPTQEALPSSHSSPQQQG

Substance: IL-18BP (from UniProt O95998)
- Kd: 0.4 nM
